Measurements as given in the domain aggregation screens of Martell et al. (2025).

Experiment: soluble fraction after stress (log2 fold change); higher = more stays soluble; pooled small domains, quantitative proteomics
Conditions: stress: 75 degC
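Note: 20 min heating vs room temperature control held 20 min.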

Sequence	soluble fraction (log2)
HMPILRDEVYLSIKEAILTGELAPGERISIGRLLPQIGFSPTPIREALLKLEQEGFVSRLQRGGFIVSR	-1.91
HMPIQLLSEKYMDEHWDELDKDEVSLYQNMSIRFLLKHEDDINWKLYSTNPFISIDTIDFFKDKISWVNI	-2.34
HMPKAKASARNDTRTRLLTIGTEVLSQKGFASTGVEEILSVAGVPKGAFYYYFESKAAFGLAVIENYE	0.259
HMPKAMAIMSEIAGTVHIDDTKKSRHVEVTGVDDNGAPVTKSYLIPFGHRLKVMEGDVLVKGALLT	-0.0702
HMPKHHIESVIPENFAGERLDKVLAVLWGTFSRAQLTRWIRDGSLLLDGHKVKPNTKVDGSEKIVLQAEVA	-1.27
HMPKNEHETKAIGNQTGGRVFLFLNTDNINRDYNMYISKQVKFVREISQEYYGKVAVFEDLYGNLWDLIE	0.0316
HMPKNRTDYVQDVLKSLGRPAHYKEITQIINAMLPKEAQYSAKSIQVVLGSSPLFIRVGTGTYALVE	-1.73
HMPKNVEVPNVVGLSLPMAKLRLTQLGLHIVVRDSVWSETGQPNTILDQDPQPGKKIKPESTVYVKVN	-1.48
HMPKRYAGPDIIAIYGSDVFFRVGSGDGLMVIPVGRSMDNIEVVSVDAPRSVELMWKDGGPFTVPV	0.145
HMPKSKTPDDAAEEFRTAFSALDMDGKVTVKDMAEYMGVIDKTVYARLKKMGDEFTLDKGVITKKT	-0.104
HMPKTATIVIDLNYADAKEIVENLQTILAGETKDISVAPHPSANQIIASGDRWEVENISTIIKQLDR	0.26
HMPKTLTEAAYEDIKQWILEGEITPGSKISLEDTASRLEVSMTPIREALTKLQQEGLVEYIPRAGWRASK	-0.0907
HMPLAQRFGLTVAQARVLDLLAEGRSNRQIGELLGLTEGTVKIHVSAIMKAMGVSNRAEAALMANRKR	-1.7
HMPLDKDTTLDEIYRRFNMEHPADYKGHSLSMGDIVVFRQDGKQTAYYVDEGADYRQVPEFFVK	-0.0344
HMPLDPFVVDALRDEIINTIKQHEPRVDLQKVQVQPIYTQNRVNISVQYKIVGLPIVEDITFVLQRP	0.39
HMPLEKGVVILDVTPSSAKVAVDGTSVETTYPLRLSAGLHQLSAEADGYDSITEYFKVETEKTTVTLDLSK	0.236
HMPLEQAELRLDLKQAILQMDRQTQELLLLRYVDGLSPGEAGKVLELSRFAVYRREKEALRKLRDYFSH	-1.93
HMPLLSEWDAALEELWAKLGDVPMDPETERMDAPFLGFPAGTPREDIWHWFDERHSKGVAHLLYG	-2.46
HMPLQYRLTVQPTPTNARVRLVNSAFTYRPGVALPPGSYIVEVSSSGYGAKRQAVQIADGDVTVPVELEKI	-0.582
HMPLYKYYTSYQIEPGDTLTSIAQKYTINSDVSVQDYIDEVKKNNNLVSDKINSGSYLVVSYYSNEY	-1.36
HMPNIQLARNLKYLRLAYGLTQDDLGAFLNISRQAYSNYENLKRSPDLDSLIRLASLYHLSLDDLVSR	-3.31
HMPNTLAGIERYLGSGMVKGIGPVYASRLVSAFGTAVFDVIEQTPERLREIDGIGEKRTRKITSGWADQ	-0.213
HMPNYIDAISALLTLKGVGDRKHASTMANILNLQYNSAKQKLDGKRGITLDEVKKVFQYFNEPF	-1.44
HMPPAPGHDLTEREREVLRLLVEGLSNQEISDRLVISQSTVKNHVSSVLSKLDAANRAEAVALALKNQL	0.0595
HMPPELSDEVMEEAMSYLKNQYLNHGVKLEDYPALNKLFVDEAFRSEVIRKTQSNYKISYQSAMASLD	0.355
HMPPENVSVRREQIAEDKKTVYNVWVTKGNKTVLYSKVVYAWGGVYFFRDLNTSISENMYKQADAGLVN	0.00373

Sequence	soluble fraction (log2)
HMPPGQIVNEALQRAGNSTPTGTAISAQDDIKLYTSALAELATQGDTSSASVAKLREALQTAQVAFYNAV	0.201
HMPPITIVPNDNGVPIIRSQTPEISTAVNVELKAAGINTHTIDGTSIRVPKAQAQVAQQIVSRVNTRFT	0.151
HMPPNHADLKSSGLKATLPRLKILEIFQNSQVRHLSAEDVYKLLLAENLDVGLATVYRVLTQFEQAGL	-0.522
HMPPNRDDEHLQALRDYYAANRRIPSLQRVASLLGFSSRSAAVKLMGRLADEGFIERTADDDAWITGKRFF	-1.34
HMPPNVLSEREQEVLQLAADGMSNKEMGSELYIAPTTVRDHMQSIMRKLQVNSRTAAAVAGLKLGLLD	-0.452
HMPPPTLVESAYNHLKADIISSYLKPDEKINLKDLSQRYQVSETPIKQALNRLISEGLIISVPRKGMWVH	0.0697
HMPPPVERAIRKLGHDLSLARRRRRISQDSMAQRMGASVSTVRRIEKGDPRIPIHFIARAMMILGDLKAL	0.0447
HMPQFDRQAFGQRLRLLRDYREMTQQQVANFLNVDRSTYSYYENGKTEPSITVLMRMAELFSVTLDSLLNM	-3.92
HMPQIDLYPFEVRIEQDNNAAEYAVRFLDVPNIIGSGASIDEAIVEARGNLKEYLDYLIDTNRDIPLPS	-0.339
HMPQISQDDLMEAGLIVGKEAKQRRIKLGEILGIGYVNAKQLPKRLQLFQVAKSDFEQAVQQIDG	-0.218
HMPQKSDLTMEEYNKLGLAGGSGSRKLREQVGIRLSVGYGNSKQFYNRLHTFGISLDELKTAVEEVKNG	0.226
HMPQNVSVPDVTNMTQAEAESKLKEKNLAVGNIIPELSTTVEKDKVTRTNPESGSNVRKNSKVDIYVSQG	0.154
HMPQPDVIEVRQGIVTGMRPDRRTGWLRDEEDAAGEPKSFSIDVITPKGRTPGKGAVVTYTLTNGKITEVK	-0.047
HMPRELKVRDVSHQHAGHAGWREGGETHFEVDMKADVFAGTSRVAAHRMVNKVLANELASRVHALQLNLS	0.0164
HMPRENLAYTLIMDGIVQHKNLPRASVTEAWLKQELQKAGINDFRQVLIAGIDSKGQLYFQPKQK	≥ 1.04
HMPRPLVAPMPGLIVRVTAVVGDSVDAGQGLVVMEAMKMENELRTTTAGVVKTVHVQPGVAVEKGALLIEF	-0.827
HMPRTEILMVDEEMEGERLDAFVAEQLDELSRSLVKTLIENGEIRVDGKQQKPSYRLKAGEEIIVEIPA	0.439
HMPSDTNLIGKTGIAYTTLRPGGTALIDDRKVDVVADSEYIEKDKKIKVIRVEGIKVVVTAVK	0.164
HMPSGRIRWFDAKKGYGFIAGDDGKDVFLPQTALPQGVRNPRKGAKVEYSVIEGNRGQVAMGVTMV	-0.331
HMPSHALFWTLLKEVPGYDPHYKDVIKEGIVHEHSGGRTTSLSEMYTKYPREYSLMIEAMKG	-0.475
HMPSKTFYNLSQEKQQKIIDASEKEFSNNLYQDVSLNQIIKNSNISRGSFYMYFTDKEDLYFYLLNEY	-0.731
HMPSLGADIRALRKSRKMTLVALADALGRSVGWLSQVERDKSHATIADLGRMAEVLDVSISSFL	-0.273
HMPSLSAILHDARVAAGLSMRQASAASGLSIGFISMLEQGKVQDISLQRLGRLVTAYDLEPLDVIEAAG	-1.83
HMPSSAYGPYKNVFLSNSELTKLKNELPTSWEHYINRLSEYMRSTGRQYQSHAATILRWAATDRNS	-0.488
HMPSSFLVKVTADALNIRSGPGVANRITGTIKDKGTYTIVDTKDDWGKLKSGVGWIHLGYTKRLD	-0.857
HMPSSQQVMRRLATVGPDKTLEELQRQHDAHLRKYGEFNDFRGERQQMRQEMERIKEAKQGTGPYAHLMG	0.025

Sequence	soluble fraction (log2)
HMPTAGYMTVTPDRVKEGQQFLATLRPPYVLKADGLAAGKGVLILPELEEAQRELEEMLGGFLGELSVNR	0.136
HMPTERLSMRRIRELLRLRFEVGLSTRLIATALGISKGAVGDYLQRAQVAGLGWPLPENLNDAALERRLFP	-1.38
HMPTGRVVIPLNRLTASDVARILDEAYGRDHNFEVVKPSRLAKGIIVIGPKSEIDGIKELLAH	-0.829
HMPTLLGYKHILSAWNPDTNTVFRTSYGYDGEYGSREEAMQALIKMIQEGGKATPRGIEESEVPIY	-0.238
HMPTLSKVGSQGEEVRQIQTKLKNWGYLNDRVDGIYGPKTRDAVIWFQKKNGLVADGIAGPATLKAMGIFT	-0.142
HMPTMVAQINEIVQAKLPGSGLKDYTIRLVESQRDGVVVWVNGTRYLGVDEVAEPQVQALLKEAVAEWERS	-0.462
HMPTQGELAILRVLWEQGPSTVRAVWEKLNSQSGTGYTTALKLMQIMAQKGLVSRDESQKTHVYRA	-1.54
HMPTTRPEAEAHYETHQRYHDLQIDVEGREAFKVATGSLTLVQEFDEKDDYDLSIPTPRSPAILLTT	-0.0329
HMPVFYVTGNRVNFRAGPSTGDRVIGSLSQGAAVEVLGPTDDAWINIRDSDGRVGYMSAQFLSQ	0.355
HMPVLDETVPAALDGERIDRVVALLADVSRNRAGIAIAAGSVRLDGAVVTQRSRKVRADEELVVDGLER	0.107
HMPVNEEFKRLIDKIKYEFSINQAQISERLGVKSTYLSDMINGRVPYNESMQKKIHEVFHIG	-0.424
HMPVNGEFIERIKVMVLENKAKGKKERLTKTRMHQLLQEEGYKGSYSAFTHQVRIIEEELGVNQKEAH	-0.48
HMPVSRMRARHEALARGVMGIHAGGFSAVYGYRKVWHGLIGKGWDPGEVGRDQVMNIMRGLGMQGVRR	-0.132
HMPVSVAEQKQILAEALQERGHATFRELIENADNRMIVVGRFLALLELYRDGTVRFEQERALGELTIHWEE	-2.07
HMPYIVNHIHLKSEDPKITADWFVKAFNFEIVSDVVRHFGDRFIVTKAEGGMTINISGVRDGEEL	0.141
HMPYNNLADAPASWKKLDDTPLTLGQVNWIAKIYDALVAKGMEKGAAAGTAISRFKKSFKVADGKWVQV	-0.478
HMPYNRRYLISNADGALYTVEENGLVKLEETNLTAELFETRGMQDIPDGKLLITLHDPTILYWHDSENLFP	-1.5
HMPYSPTPGSAPARLIAHLQEHGDSVNRTAIAELLQVDRKNVHNYLARAVTHGLLLRHGGGAYSLP	0.0908
HMQADEENPKYPVITDGVIQLEVLESIDKTEEWLVERLAKDGYNNVSEIFIAEYENGNLSIVT	0.0913
HMQADPYTVLGVLRDVTDGELKREYRKLVREHHPDALIAQGVPQEFVDIANNKLAVINAAYERIAKQRGL	-0.154
HMQAGILTDTAAKNARIKKIDTERLEAELDQKRIVIVTGFQGVDRNQNITTLGRGGSDTSAVALAAAVSIT	0.171
HMQAKDVEIPNFVGKTLAEANADNKDNFNFVVESKYDASKELGVILEQEPAADSKLVKSGSQITLKV	≥ 1.04
HMQALDNNDALEEIIKKVITENPSQVTEFRNGKDSLMNFLVGKVMAASGGKANPKTLPETIEKIIK	0.277
HMQAMDYEGFKKEILKMSDIDLSLYKEKQMKRRIDSLIRKNGYEHYEDYVQALKQDSGLYNEFINYLTI	0.571
